Ends that are not written are not given here. Peptide text beside a SMILES is read from it. * marks the point of attachment. Biotin = O=C1N[C@H]2[C@H](CS[C@H]2CCCCC(=O)*)N1
What was measured:
Test in all cases: G' assay (10 uM PL peptide), results of TABLE 7 and TABLE 12
Type in all cases: binding
[1] = molecular target: T1, PDZ protein (GST-PDZ fusion) (Homo sapiens, UniProt P78352); conditions: PDZ PSD95, PDZ Domain 1, 2, 3
T1 construct: made in house; host or cells: E. coli (DH5alpha, BL21 or JM109)
Summary of the method: (§1)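 Binding classes derive from A450 nm of bound biotin-tagged PL peptide. A score of 5 needs A450 above 4 in more than two repeats.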

[2] = molecular target: T2, PDZ protein (GST-PDZ fusion) (Homo sapiens, UniProt O14907); conditions: PDZ TIP1, PDZ Domain 1
T2 construct: made in house; host or cells: E. coli (DH5alpha, BL21 or JM109)
T2 sequence (O14907 1-124): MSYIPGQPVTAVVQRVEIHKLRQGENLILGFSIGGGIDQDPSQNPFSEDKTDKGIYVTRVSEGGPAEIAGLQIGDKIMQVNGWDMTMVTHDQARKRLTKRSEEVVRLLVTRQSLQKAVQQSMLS
Summary of the method: as §1

[3] = molecular target: T3, PDZ protein (GST-PDZ fusion) (Homo sapiens, UniProt Q12959); conditions: PDZ DLG1, PDZ Domain 1, 2
T3 construct: made in house; host or cells: E. coli (DH5alpha, BL21 or JM109)
Summary of the method: as §1

[4] = molecular target: T4, PDZ protein (GST-PDZ fusion) (Homo sapiens, UniProt Q14160); conditions: PDZ KIAA0147, PDZ Domain 1
T4 construct: made in house; host or cells: E. coli (DH5alpha, BL21 or JM109)
Summary of the method: as §1

[5] = molecular target: T5, PDZ protein (GST-PDZ fusion) (Homo sapiens, UniProt O15018)
T5 construct: made in house; host or cells: E. coli (DH5alpha, BL21 or JM109)
Summary of the method: as §1

T5 sequence (O15018 whole entry, the tested form may be a part): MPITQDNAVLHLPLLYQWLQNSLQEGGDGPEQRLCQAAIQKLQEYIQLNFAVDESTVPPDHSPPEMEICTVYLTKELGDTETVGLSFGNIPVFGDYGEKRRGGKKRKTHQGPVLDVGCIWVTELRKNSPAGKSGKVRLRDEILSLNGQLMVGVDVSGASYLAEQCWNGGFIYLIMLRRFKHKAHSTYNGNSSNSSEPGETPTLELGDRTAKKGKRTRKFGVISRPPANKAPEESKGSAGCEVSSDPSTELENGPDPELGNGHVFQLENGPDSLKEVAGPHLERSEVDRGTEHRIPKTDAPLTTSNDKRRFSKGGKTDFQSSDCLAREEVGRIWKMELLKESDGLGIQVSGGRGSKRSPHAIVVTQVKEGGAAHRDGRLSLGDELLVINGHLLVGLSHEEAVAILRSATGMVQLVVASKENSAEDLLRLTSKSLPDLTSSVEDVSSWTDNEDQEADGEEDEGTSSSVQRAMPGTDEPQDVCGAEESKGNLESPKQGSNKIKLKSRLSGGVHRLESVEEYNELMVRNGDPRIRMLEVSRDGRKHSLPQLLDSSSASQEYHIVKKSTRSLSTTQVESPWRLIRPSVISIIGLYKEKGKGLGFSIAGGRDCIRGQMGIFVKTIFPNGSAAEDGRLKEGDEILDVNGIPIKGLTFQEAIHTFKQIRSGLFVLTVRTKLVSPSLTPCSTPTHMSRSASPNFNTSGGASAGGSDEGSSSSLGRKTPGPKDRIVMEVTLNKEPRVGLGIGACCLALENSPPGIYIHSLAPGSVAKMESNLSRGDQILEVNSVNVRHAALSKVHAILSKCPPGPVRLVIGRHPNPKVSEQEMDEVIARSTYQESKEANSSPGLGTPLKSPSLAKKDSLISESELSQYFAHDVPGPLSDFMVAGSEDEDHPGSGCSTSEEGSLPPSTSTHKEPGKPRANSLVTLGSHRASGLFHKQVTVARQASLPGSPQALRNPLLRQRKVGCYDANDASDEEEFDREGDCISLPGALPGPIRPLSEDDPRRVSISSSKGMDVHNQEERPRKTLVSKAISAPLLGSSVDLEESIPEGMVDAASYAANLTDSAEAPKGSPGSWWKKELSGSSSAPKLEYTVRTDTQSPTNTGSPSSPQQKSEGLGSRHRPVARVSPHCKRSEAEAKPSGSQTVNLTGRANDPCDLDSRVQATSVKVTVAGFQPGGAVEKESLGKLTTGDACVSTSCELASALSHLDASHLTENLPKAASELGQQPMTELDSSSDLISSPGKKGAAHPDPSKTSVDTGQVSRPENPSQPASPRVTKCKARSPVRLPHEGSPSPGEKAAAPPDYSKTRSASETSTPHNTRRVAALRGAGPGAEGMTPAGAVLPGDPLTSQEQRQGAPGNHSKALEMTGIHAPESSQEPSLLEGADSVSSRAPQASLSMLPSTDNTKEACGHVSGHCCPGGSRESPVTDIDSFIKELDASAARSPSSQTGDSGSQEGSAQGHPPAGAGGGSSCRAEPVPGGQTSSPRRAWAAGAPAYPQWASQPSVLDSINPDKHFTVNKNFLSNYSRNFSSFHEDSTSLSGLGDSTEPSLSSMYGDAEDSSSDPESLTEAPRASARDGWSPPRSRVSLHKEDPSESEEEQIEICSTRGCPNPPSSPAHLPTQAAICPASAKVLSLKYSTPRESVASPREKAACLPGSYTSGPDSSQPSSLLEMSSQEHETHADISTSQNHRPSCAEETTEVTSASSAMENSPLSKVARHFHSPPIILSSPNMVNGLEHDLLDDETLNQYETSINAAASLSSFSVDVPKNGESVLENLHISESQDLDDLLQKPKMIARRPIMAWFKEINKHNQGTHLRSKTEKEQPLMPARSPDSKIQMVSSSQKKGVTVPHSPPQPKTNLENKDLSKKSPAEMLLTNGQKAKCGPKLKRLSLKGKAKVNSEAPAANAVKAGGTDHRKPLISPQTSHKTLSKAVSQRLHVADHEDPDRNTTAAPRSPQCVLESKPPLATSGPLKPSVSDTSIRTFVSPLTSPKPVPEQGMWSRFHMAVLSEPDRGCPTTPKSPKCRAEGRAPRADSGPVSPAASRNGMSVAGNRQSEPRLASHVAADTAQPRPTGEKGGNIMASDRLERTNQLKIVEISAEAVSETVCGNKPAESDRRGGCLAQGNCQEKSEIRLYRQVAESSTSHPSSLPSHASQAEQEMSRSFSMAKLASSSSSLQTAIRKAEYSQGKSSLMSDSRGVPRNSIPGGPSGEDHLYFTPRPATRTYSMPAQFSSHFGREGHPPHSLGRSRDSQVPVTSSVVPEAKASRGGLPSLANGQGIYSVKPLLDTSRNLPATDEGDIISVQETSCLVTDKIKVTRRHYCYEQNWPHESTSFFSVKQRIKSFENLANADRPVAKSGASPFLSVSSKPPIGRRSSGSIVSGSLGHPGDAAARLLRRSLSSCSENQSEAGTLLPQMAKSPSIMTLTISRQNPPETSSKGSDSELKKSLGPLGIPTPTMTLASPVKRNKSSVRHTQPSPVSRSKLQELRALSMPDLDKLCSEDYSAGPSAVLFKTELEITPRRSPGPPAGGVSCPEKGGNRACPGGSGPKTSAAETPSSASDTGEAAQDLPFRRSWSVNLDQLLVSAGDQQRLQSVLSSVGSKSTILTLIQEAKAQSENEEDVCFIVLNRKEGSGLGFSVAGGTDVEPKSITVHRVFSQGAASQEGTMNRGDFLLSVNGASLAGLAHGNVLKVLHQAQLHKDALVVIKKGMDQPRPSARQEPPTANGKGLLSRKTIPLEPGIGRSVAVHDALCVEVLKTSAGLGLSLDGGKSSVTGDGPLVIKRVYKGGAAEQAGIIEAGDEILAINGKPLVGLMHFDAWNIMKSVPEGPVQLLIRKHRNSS
T3 sequence (Q12959 whole entry, the tested form may be a part): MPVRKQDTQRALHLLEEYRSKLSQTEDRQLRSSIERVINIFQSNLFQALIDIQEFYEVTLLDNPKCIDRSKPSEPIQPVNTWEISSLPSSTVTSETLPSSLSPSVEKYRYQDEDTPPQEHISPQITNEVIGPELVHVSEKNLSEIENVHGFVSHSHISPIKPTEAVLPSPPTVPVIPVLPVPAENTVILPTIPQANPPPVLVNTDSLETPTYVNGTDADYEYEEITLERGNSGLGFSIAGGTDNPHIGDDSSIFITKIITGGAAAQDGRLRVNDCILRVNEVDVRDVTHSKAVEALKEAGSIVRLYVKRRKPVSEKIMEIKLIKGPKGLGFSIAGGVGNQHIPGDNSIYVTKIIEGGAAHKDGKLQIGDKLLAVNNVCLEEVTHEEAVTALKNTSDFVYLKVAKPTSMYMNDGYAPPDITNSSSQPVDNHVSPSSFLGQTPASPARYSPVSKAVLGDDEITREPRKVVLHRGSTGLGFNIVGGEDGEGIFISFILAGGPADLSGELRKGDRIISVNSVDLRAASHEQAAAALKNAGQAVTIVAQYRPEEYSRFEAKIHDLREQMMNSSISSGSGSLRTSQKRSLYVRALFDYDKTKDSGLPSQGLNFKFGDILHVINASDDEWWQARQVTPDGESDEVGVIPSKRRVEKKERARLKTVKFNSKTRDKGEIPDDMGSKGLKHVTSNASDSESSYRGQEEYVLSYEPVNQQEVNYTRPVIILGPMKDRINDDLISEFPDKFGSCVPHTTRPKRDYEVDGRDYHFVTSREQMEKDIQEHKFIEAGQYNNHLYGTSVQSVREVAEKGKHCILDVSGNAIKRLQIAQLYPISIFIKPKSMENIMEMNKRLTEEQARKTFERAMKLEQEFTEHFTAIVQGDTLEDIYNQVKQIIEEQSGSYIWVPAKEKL
T1 sequence (P78352 whole entry, the tested form may be a part): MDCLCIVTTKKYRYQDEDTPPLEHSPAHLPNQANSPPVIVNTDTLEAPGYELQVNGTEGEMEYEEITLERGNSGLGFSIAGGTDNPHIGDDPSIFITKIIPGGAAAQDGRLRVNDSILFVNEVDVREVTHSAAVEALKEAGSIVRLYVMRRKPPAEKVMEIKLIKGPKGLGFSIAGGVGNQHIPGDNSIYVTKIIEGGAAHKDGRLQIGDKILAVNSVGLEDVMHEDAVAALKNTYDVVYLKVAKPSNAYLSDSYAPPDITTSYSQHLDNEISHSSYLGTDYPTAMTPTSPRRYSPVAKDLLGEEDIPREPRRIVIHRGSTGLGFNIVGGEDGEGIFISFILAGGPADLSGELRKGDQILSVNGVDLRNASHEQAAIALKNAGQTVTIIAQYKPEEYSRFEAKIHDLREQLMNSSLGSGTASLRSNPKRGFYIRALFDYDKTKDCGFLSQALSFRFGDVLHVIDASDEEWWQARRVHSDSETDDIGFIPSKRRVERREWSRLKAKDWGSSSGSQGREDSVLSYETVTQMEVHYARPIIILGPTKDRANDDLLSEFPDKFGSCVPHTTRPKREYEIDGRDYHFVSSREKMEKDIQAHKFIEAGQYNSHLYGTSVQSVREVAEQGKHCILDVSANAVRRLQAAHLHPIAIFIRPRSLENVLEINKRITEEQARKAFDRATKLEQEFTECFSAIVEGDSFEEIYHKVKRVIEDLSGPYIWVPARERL

In the case of “RNIEEVYVGGKQVVPFSSSV (Biotin-RNIEEVYVGGKQVVPFSSSV) [Nedasin (s-form)]”, the Classification [1] is reported as 3 (A450 nm 2-3), the Classification [2] is reported as 5 (A450 nm of 4 more than 2× repeated) and the Classification [3] is reported as 3 (A450 nm 2-3).

In the case of “LASKSAEEGKQIPDSLSTDL (Biotin-LASKSAEEGKQIPDSLSTDL) [Dock2]”, the Classification [4] is reported as 1 (A450 nm 0-1).

In the case of `CC[C@H](C)[C@H](NC(=O)[C@H](C)NC(=O)[C@H](CC(C)C)NC(=O)[C@H](Cc1c[nH]c2ccccc12)NC(=O)[C@H](Cc1c[nH]cn1)NC(=O)[C@H](CCC(N)=O)NC(=O)[C@H](CC(C)C)NC(=O)[C@H](CCC(N)=O)NC(=O)[C@H](Cc1ccccc1)NC(=O)[C@H](CCC(N)=O)NC(=O)[C@H](CCCNC(=N)N)NC(=O)[C@@H](NC(=O)[C@H](CC(=O)O)NC(=O)[C@H](CCCNC(=N)N)NC(=O)[C@H](CCC(N)=O)NC(=O)[C@H](C)NC(=O)[C@@H](NC(=O)[C@H](CC(C)C)NC(=O)[C@H](Cc1c[nH]cn1)NC(=O)[C@H](Cc1c[nH]cn1)NC(=O)CCCC[C@@H]1SC[C@@H]2NC(=O)N[C@@H]21)C(C)C)[C@@H](C)CC)C(=O)O` [noradrenaline transporter] (Biotin-HHLVAQRDIRQFQLQHWLAI-OH; C-terminus assumed), the Classification ([5]; PDZ AIPC, PDZ Domain 1) is reported as 2 (A450 nm 1-2).

With “GPVPGEPAKPKTSAHHATFV (Biotin-GPVPGEPAKPKTSAHHATFV)” the Classification [2] was 1 (A450 nm 0-1) and the Classification [3] was 1 (A450 nm 0-1).

For CKR5_HUMAN (ERASSVYTRSTGEQEISVGL), the Classification [2] was 1 (A450 nm 0-1).

With “SLKPGTVLPPPPYRHRNTVV (Biotin-SLKPGTVLPPPPYRHRNTVV) [ErbB-4 receptor]” the Classification [1] was 1 (A450 nm 0-1) and the Classification [3] was 1 (A450 nm 0-1).

“ARHRVTSYTSSSVNVSSNL (Biotin-ARHRVTSYTSSSVNVSSNL) [IL-8RB]” was tested, and the Classification [2] was 1 (A450 nm 0-1).

In the case of `CC[C@H](C)[C@H](NC(=O)[C@H](Cc1ccc(O)cc1)NC(=O)[C@H](CC(C)C)NC(=O)[C@H](CCC(N)=O)NC(=O)[C@H](Cc1c[nH]cn1)NC(=O)[C@H](CO)NC(=O)[C@H](C)NC(=O)[C@H](CC(C)C)NC(=O)[C@@H](NC(=O)[C@H](CC(=O)O)NC(=O)[C@H](CCSC)NC(=O)[C@H](Cc1ccccc1)NC(=O)[C@@H]1CCCN1C(=O)[C@H](CCCNC(=N)N)NC(=O)[C@@H](NC(=O)[C@H](CC(C)C)NC(=O)[C@H](CC(N)=O)NC(=O)[C@H](CC(=O)O)NC(=O)[C@@H](NC(=O)[C@H](CO)NC(=O)CCCC[C@@H]1SC[C@@H]2NC(=O)N[C@@H]21)[C@@H](C)O)C(C)C)[C@@H](C)O)C(=O)O` [presenilin-2] (Biotin-STDNLVRPFMDTLASHQLYI-OH; C-terminus assumed), the Classification ([5]; PDZ AIPC, PDZ Domain 1) is reported as 1 (A450 nm 0-1), the Classification ([5]; PDZ AIPC, PDZ Domain 4) is reported as 1 (A450 nm 0-1) and the Classification ([5]; PDZ KIAA0300, PDZ Domain 1) is reported as 1 (A450 nm 0-1). For the same compound, the Classification ([5]; PDZ KIAA0300, PDZ Domain 2) was 1 (A450 nm 0-1).

“KTMPAAMFRLLTGQETPLYI (Biotin-KTMPAAMFRLLTGQETPLYI) [MINT-2]” was tested, and the Classification ([5]; PDZ AIPC, PDZ Domain 1) was 1 (A450 nm 0-1) and the Classification ([5]; PDZ KIAA0300, PDZ Domain 1) was 3 (A450 nm 2-3).

For `CC[C@H](C)[C@H](NC(=O)[C@H](Cc1ccc(O)cc1)NC(=O)[C@@H](NC(=O)[C@@H]1CCCN1C(=O)[C@H](CCC(N)=O)NC(=O)[C@H](CCC(=O)O)NC(=O)[C@H](CCC(N)=O)NC(=O)[C@H](C)NC(=O)[C@@H](NC(=O)[C@H](CC(C)C)NC(=O)[C@H](CC(C)C)NC(=O)[C@H](CCCNC(=N)N)NC(=O)[C@H](Cc1ccc(O)cc1)NC(=O)[C@H](CCSC)NC(=O)[C@H](C)NC(=O)[C@H](C)NC(=O)[C@@H]1CCCN1C(=O)[C@H](CCSC)NC(=O)[C@@H](NC(=O)[C@H](CCCCN)NC(=O)CCCC[C@@H]1SC[C@@H]2NC(=O)N[C@@H]21)[C@@H](C)O)[C@@H](C)O)C(C)C)C(=O)O` [MINT-1] (Biotin-KTMPAAMYRLLTAQEQPVYI-OH; C-terminus assumed), the Classification ([5]; PDZ AIPC, PDZ Domain 1) was 1 (A450 nm 0-1) and the Classification ([5]; PDZ KIAA0300, PDZ Domain 1) was 4 (A450 nm 3-4).

In the case of “QATSRNGHSARQHVVADTEL (Biotin-QATSRNGHSARQHVVADTEL) [CD34]”, the Classification [4] is reported as 1 (A450 nm 0-1).

Reference: US20050282743A1, “Molecular interactions in cells” (Arbor Vita Corporation, priority 2001, published 2005)
